# Where two headings read alike, the source gives them in different places.
# T1: recombinant human activated FVII (FVIIa) (human, UniProt P08709 61-212; P08709 213-466, ten glutamate residues of the Gla domain may be gamma-carboxylated)
# T1 sequence 1: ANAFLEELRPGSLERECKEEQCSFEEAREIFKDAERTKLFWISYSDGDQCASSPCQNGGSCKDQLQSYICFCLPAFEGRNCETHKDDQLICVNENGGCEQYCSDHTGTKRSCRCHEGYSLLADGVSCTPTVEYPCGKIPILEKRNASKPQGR
# T1 sequence 2: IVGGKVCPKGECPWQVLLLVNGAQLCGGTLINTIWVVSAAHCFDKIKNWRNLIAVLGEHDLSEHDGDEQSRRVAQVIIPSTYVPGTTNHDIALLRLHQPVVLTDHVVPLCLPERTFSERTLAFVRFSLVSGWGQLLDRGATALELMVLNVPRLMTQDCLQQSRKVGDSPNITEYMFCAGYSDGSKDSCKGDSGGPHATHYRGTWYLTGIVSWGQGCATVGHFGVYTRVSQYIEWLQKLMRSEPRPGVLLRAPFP
# T2: sTLT1 (SEQ ID No: 3 with six histidine residues added at the C-terminus) (human, UniProt Q86YW5 16-162)
# T2 construct: Soluble TLT-1 used in SPR
# T2 sequence: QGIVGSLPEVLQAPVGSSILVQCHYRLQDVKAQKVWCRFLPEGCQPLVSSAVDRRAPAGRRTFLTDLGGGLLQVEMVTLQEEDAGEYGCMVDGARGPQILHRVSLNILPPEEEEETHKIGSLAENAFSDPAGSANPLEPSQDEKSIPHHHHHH
# How the values were obtained:
# [1] = biological target: T1, recombinant human activated FVII (FVIIa); test: cell-based or functional assay
# [2] = biological target: T1, recombinant human activated FVII (FVIIa); test: cell-based or functional assay; remark: listed apart in the source
# [3] = biological target: T2, sTLT1 (SEQ ID No: 3 with six histidine …); test: dissociation constant listed with the stimulatory activities; value of the anti-TLT-1 arm
# [4] = biological target: T1, recombinant human activated FVII (FVIIa); test: dissociation constant listed with the stimulatory activities; value of the anti-FVII(a) arm mAb0873
Binder,"Stimulation (fold): FXa generated by FVIIa with lipidated TLT-1 and 100 nM biAb, relative to free FVIIa [1]","Stimulation (fold): FXa generated by FVIIa with lipidated TLT-1 and 100 nM biAb, relative to free FVIIa [2]",Kd [3],Kd [4]
"biAb0244 (bispecific antibody, human IgG4 S228P, kappa) heavy 1: QVQLKESGPGLVAPSQSLSITCTVSGFSLTDYGVSWIRQPPGKGLEWLGVIWGGGNTYNNSALKSRLSISKDNSKSQVFLKMNSLQADDTAMYFCAKHGYYGYVMDYWGQGTSVTVSSASTKGPSVFPLAPCSRSTSESTAALGCLVKDYFPEPVTVSWNSGALTSGVHTFPAVLQSSGLYSLSSVVTVPSSSLGTKTYTCNVDHKPSNTKVDKRVESKYGPPCPPCPAPEFLGGPSVFLFPPKPKDTLMISRTPEVTCVVVDVSQEDPEVQFNWYVDGVEVHNAKTKPREEQFNSTYRVVSVLTVLHQDWLNGKEYKCKVSNKGLPSSIEKTISKAKGQPREPQVYTLPPSQEEMTKNQVSLTCLVKGFYPSDIAVEWESNGQPENNYKTTPPVLDSDGSFLLYSKLTVDKSRWQEGNVFSCSVMHEALHNHYTQKSLSLSLGK light 1: DIVMTQSHKIMSTLVGDRVSITCKASQDVDPAVAWYQQKPGQYPKLLIYWASTRHTGVPDRFTGSGSGTDFTLTISNVQSEDLADYFCQQYSKYPYTFGGGTKLEIKRTVAAPSVFIFPPSDEQLKSGTASVVCLLNNFYPREAKVQWKVDNALQSGNSQESVTEQDSKDSTYSLSSTLTLSKADYEKHKVYACEVTHQGLSSPVTKSFNRGEC heavy 2: not shown light 2: DIVMTQTPLSSPVTLGQPASISCRSSQSLVHRQGNTYFHWLQQRPGQPPRLLIYKVSNRFSGVPDRFSGSGAGTDFTLKISRVEAEDVGVYYCSQSTHVPYTFGQGTKLEIKRTVAAPSVFIFPPSDEQLKSGTASVVCLLNNFYPREAKVQWKVDNALQSGNSQESVTEQDSKDSTYSLSSTLTLSKADYEKHKVYACEVTHQGLSSPVTKSFNRGEC",2.7 fold,–,–,–
"biAb0099 (bispecific antibody, human IgG4 S228P, kappa, Duobody, constant domain type H (IgG4): anti-FVII(a) arm mAb0873, anti-TLT-1 arm mAb1047; also called mAb0873 x mAb1047) heavy 1: DVQLQESGPGLVKPSQTLSLTCTVSGYSISSDSAWSWIRQPPGKGLEWIGYIQYSGSTNYNPSLKSRVTISRDTSKNQFSLKLSSVTAADTAVYYCARSVNYYGNSFWVDPWGQGTLVTVSSASTKGPSVFPLAPCSRSTSESTAALGCLVKDYFPEPVTVSWNSGALTSGVHTFPAVLQSSGLYSLSSVVTVPSSSLGTKTYTCNVDHKPSNTKVDKRVESKYGPPCPPCPAPEFLGGPSVFLFPPKPKDTLMISRTPEVTCVVVDVSQEDPEVQFNWYVDGVEVHNAKTKPREEQFNSTYRVVSVLTVLHQDWLNGKEYKCKVSNKGLPSSIEKTISKAKGQPREPQVYTLPPSQEEMTKNQVSLTCLVKGFYPSDIAVEWESNGQPENNYKTTPPVLDSDGSFLLYSKLTVDKSRWQEGNVFSCSVMHEALHNHYTQKSLSLSLGK light 1: DIVMTQSPATLSVTAGDRVSLSCRASQGISDYLHWYQQKSHESPRLLIKYTSQPVSGIPSRFSGSGSGSEFTLSINSVEPEDVGVYYCQNGHSFPLTFGAGTKLELKRTVAAPSVFIFPPSDEQLKSGTASVVCLLNNFYPREAKVQWKVDNALQSGNSQESVTEQDSKDSTYSLSSTLTLSKADYEKHKVYACEVTHQGLSSPVTKSFNRGEC heavy 2: not shown light 2: DIVMTQTPLSSPVTLGQPASISCRSSQSLVHRNGNTYFHWLQQRPGQPPRLLIYKVSNRFSGVPDRFSGSGAGTDFTLKISRVEAEDVGVYYCSQSTHVPYTFGQGTKLEIKRTVAAPSVFIFPPSDEQLKSGTASVVCLLNNFYPREAKVQWKVDNALQSGNSQESVTEQDSKDSTYSLSSTLTLSKADYEKHKVYACEVTHQGLSSPVTKSFNRGEC",–,5.8 fold,75 nM,600 nM
"biAb0019 (bispecific antibody, human IgG4 S228P, kappa, also called mAb0873 x mAb1038) heavy 1: DVQLQESGPGLVKPSQTLSLTCTVSGYSISSDSAWSWIRQPPGKGLEWIGYIQYSGSTNYNPSLKSRVTISRDTSKNQFSLKLSSVTAADTAVYYCARSVNYYGNSFWVDPWGQGTLVTVSSASTKGPSVFPLAPCSRSTSESTAALGCLVKDYFPEPVTVSWNSGALTSGVHTFPAVLQSSGLYSLSSVVTVPSSSLGTKTYTCNVDHKPSNTKVDKRVESKYGPPCPPCPAPEFLGGPSVFLFPPKPKDTLMISRTPEVTCVVVDVSQEDPEVQFNWYVDGVEVHNAKTKPREEQFNSTYRVVSVLTVLHQDWLNGKEYKCKVSNKGLPSSIEKTISKAKGQPREPQVYTLPPSQEEMTKNQVSLTCLVKGFYPSDIAVEWESNGQPENNYKTTPPVLDSDGSFLLYSKLTVDKSRWQEGNVFSCSVMHEALHNHYTQKSLSLSLGK light 1: DIVMTQSPATLSVTAGDRVSLSCRASQGISDYLHWYQQKSHESPRLLIKYTSQPVSGIPSRFSGSGSGSEFTLSINSVEPEDVGVYYCQNGHSFPLTFGAGTKLELKRTVAAPSVFIFPPSDEQLKSGTASVVCLLNNFYPREAKVQWKVDNALQSGNSQESVTEQDSKDSTYSLSSTLTLSKADYEKHKVYACEVTHQGLSSPVTKSFNRGEC heavy 2: not shown light 2: DIVMTQTPLSSPVTLGQPASISCRSSQSLVHRPGNTYFHWLQQRPGQPPRLLIYKVSNRFSGVPDRFSGSGAGTDFTLKISRVEAEDVGVYYCSQSTHVPYTFGQGTKLEIKRTVAAPSVFIFPPSDEQLKSGTASVVCLLNNFYPREAKVQWKVDNALQSGNSQESVTEQDSKDSTYSLSSTLTLSKADYEKHKVYACEVTHQGLSSPVTKSFNRGEC",–,9.4 fold,19 nM,600 nM
"biAb0014 (bispecific antibody, human IgG4 S228P, kappa, also called mAb0873 x mAb1076) heavy 1: DVQLQESGPGLVKPSQTLSLTCTVSGYSISSDSAWSWIRQPPGKGLEWIGYIQYSGSTNYNPSLKSRVTISRDTSKNQFSLKLSSVTAADTAVYYCARSVNYYGNSFWVDPWGQGTLVTVSSASTKGPSVFPLAPCSRSTSESTAALGCLVKDYFPEPVTVSWNSGALTSGVHTFPAVLQSSGLYSLSSVVTVPSSSLGTKTYTCNVDHKPSNTKVDKRVESKYGPPCPPCPAPEFLGGPSVFLFPPKPKDTLMISRTPEVTCVVVDVSQEDPEVQFNWYVDGVEVHNAKTKPREEQFNSTYRVVSVLTVLHQDWLNGKEYKCKVSNKGLPSSIEKTISKAKGQPREPQVYTLPPSQEEMTKNQVSLTCLVKGFYPSDIAVEWESNGQPENNYKTTPPVLDSDGSFLLYSKLTVDKSRWQEGNVFSCSVMHEALHNHYTQKSLSLSLGK light 1: DIVMTQSPATLSVTAGDRVSLSCRASQGISDYLHWYQQKSHESPRLLIKYTSQPVSGIPSRFSGSGSGSEFTLSINSVEPEDVGVYYCQNGHSFPLTFGAGTKLELKRTVAAPSVFIFPPSDEQLKSGTASVVCLLNNFYPREAKVQWKVDNALQSGNSQESVTEQDSKDSTYSLSSTLTLSKADYEKHKVYACEVTHQGLSSPVTKSFNRGEC heavy 2: not shown light 2: DIVMTQTPLSSPVTLGQPASISCRSSQSLVHRQGNTYFHWLQQRPGQPPRLLIYKVSNRFSGVPDRFSGSGAGTDFTLKISRVEAEDVGVYYCSQSTHVPYTFGQGTKLEIKRTVAAPSVFIFPPSDEQLKSGTASVVCLLNNFYPREAKVQWKVDNALQSGNSQESVTEQDSKDSTYSLSSTLTLSKADYEKHKVYACEVTHQGLSSPVTKSFNRGEC",–,8 fold,2.9 nM,600 nM
"biAb0094 (bispecific antibody, human IgG4 S228P, kappa, Duobody, constant domain type H (IgG4): anti-FVII(a) arm mAb0873, anti-TLT-1 arm mAb1049; also called mAb0873 x mAb1049) heavy 1: DVQLQESGPGLVKPSQTLSLTCTVSGYSISSDSAWSWIRQPPGKGLEWIGYIQYSGSTNYNPSLKSRVTISRDTSKNQFSLKLSSVTAADTAVYYCARSVNYYGNSFWVDPWGQGTLVTVSSASTKGPSVFPLAPCSRSTSESTAALGCLVKDYFPEPVTVSWNSGALTSGVHTFPAVLQSSGLYSLSSVVTVPSSSLGTKTYTCNVDHKPSNTKVDKRVESKYGPPCPPCPAPEFLGGPSVFLFPPKPKDTLMISRTPEVTCVVVDVSQEDPEVQFNWYVDGVEVHNAKTKPREEQFNSTYRVVSVLTVLHQDWLNGKEYKCKVSNKGLPSSIEKTISKAKGQPREPQVYTLPPSQEEMTKNQVSLTCLVKGFYPSDIAVEWESNGQPENNYKTTPPVLDSDGSFLLYSKLTVDKSRWQEGNVFSCSVMHEALHNHYTQKSLSLSLGK light 1: DIVMTQSPATLSVTAGDRVSLSCRASQGISDYLHWYQQKSHESPRLLIKYTSQPVSGIPSRFSGSGSGSEFTLSINSVEPEDVGVYYCQNGHSFPLTFGAGTKLELKRTVAAPSVFIFPPSDEQLKSGTASVVCLLNNFYPREAKVQWKVDNALQSGNSQESVTEQDSKDSTYSLSSTLTLSKADYEKHKVYACEVTHQGLSSPVTKSFNRGEC heavy 2: not shown light 2: DIVMTQTPLSSPVTLGQPASISCRSSQSLVHRNGNTYFHWLQQRPGQPPRLLIYKVSNRFSGVPDRFSGSGAGTDFTLKISRVEAEDVGVYYCSQSTHVPYTFGQGTKLEIKRTVAAPSVFIFPPSDEQLKSGTASVVCLLNNFYPREAKVQWKVDNALQSGNSQESVTEQDSKDSTYSLSSTLTLSKADYEKHKVYACEVTHQGLSSPVTKSFNRGEC",–,5.4 fold,320 nM,600 nM
